Experimental findings from paper PMC3742746, “A Novel TetR Family Transcriptional Regulator, SAV576, Negatively Controls Avermectin Biosynthesis in Streptomyces avermitilis” are described below.

For the data set, the target named is T1, His6-SAV576 (TetR family regulator) (Streptomyces avermitilis ATCC31267, UniProt Q82QD4 1-218).
T1 sequence: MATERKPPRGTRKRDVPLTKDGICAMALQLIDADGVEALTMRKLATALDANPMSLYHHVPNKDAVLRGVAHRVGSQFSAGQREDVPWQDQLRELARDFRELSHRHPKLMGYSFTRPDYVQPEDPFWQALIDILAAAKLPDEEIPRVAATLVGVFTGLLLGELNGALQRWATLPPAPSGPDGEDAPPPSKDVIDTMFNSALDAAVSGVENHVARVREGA
Nature of the data set: EMSA; EMSA: Roche DIG Gel Shift Kit binding buffer (composition not stated), 0.3 nM probe, 1 µg poly[d(I-C)] in 20 µl, 25°C 30 min, 5% PAGE 0.5x TBE; footprinting: 400 ng DNA in 50 µl, 25°C 30 min, DNase I at 37°C. The following applies: protein: recombinant; tags: His6 (pET-28a); chain copies: 2; label: 3' DIG; blunt.

B1: probe 2 (dsDNA)
DNA 1: CCCAGGTCTGCCGATTGAGTTTCCATACGTCGTATGGTACTAC
DNA 2: GTAGTACCATACGACGTATGGAAACTCAATCGGCAGACCTGGG
Turning to B1, the binding result is “binds”.

B2: probe 6m (dsDNA)
DNA 1: AGTCGCGAATTCCAAGCTTGTACCAGCGCCCGCGGCACTGCGG
DNA 2: CCGCAGTGCCGCGGGCGCTGGTACAAGCTTGGAATTCGCGACT
In the case of B2, the binding result was “no binding”.

B3: probe 1m (dsDNA)
DNA 1: TGAAGCGAATTCGAAGCTTGAAACGGGGCGCTGCCGTACCGGC
DNA 2: GCCGGTACGGCAGCGCCCCGTTTCAAGCTTCGAATTCGCTTCA
On to B3, for which the binding result was “no binding”.

B4: probe 6 (dsDNA)
DNA 1: AGTCGCCATACGCTGTACGGTACCAGCGCCCGCGGCACTGCGG
DNA 2: CCGCAGTGCCGCGGGCGCTGGTACCGTACAGCGTATGGCGACT
As to B4, the binding result is reported as “binds”.

B5: probe 2m (dsDNA)
DNA 1: CCCAGGTCTGCCGATTGAGTTTCGAATTCTAAGCTTGTACTAC
DNA 2: GTAGTACAAGCTTAGAATTCGAAACTCAATCGGCAGACCTGGG
With B5, the binding result was “no binding”.
